A short description of data set [1]: Enzyme activity assay of Fcf2: temperature optima (capillary electrophoresis). The data set is classed as biochemical, E. coli O52. The note with it: for Transformation rate (%): 3 hours, 2 mM dTDP-D-fucose, 3.9 μM enzyme. How it is done:
25 μl reactions in 0.5 ml centrifugal tube contain 2 mM dTDP-D-fucose, 50 mM Tris-HCl buffer (pH 7.4) 5 mM divalent ion chloride and 3.9 μM recombinant dTDP-D-Glcfucofuranose mutase protein purified in example 2. The reactions are proceeded at certain temperature for 3 hours. Then add chloroform of equal volume to extract protein. The aqueous phase is detected by Beckman Coulter P/ACE MDQ capillary electrophoresis.

Data set [2] in a line: Enzyme activity assay of Fcf1: temperature optima and kinetic parameters (capillary electrophoresis). It is filed as biochemical, E. coli O52. The note with it: for Transformation rate (%): 2 hours, 2 mM dTDP-D-Glco, 3 mM NADPH, 0.25 μM enzyme. How it is done:
20 μl reactions in 0.5 ml centrifugal tube contain 2 mM dTDP-D-Glco, 3 mM NADPH, 50 mM Tris-HCl buffer (pH7.4), 5 mM divalent ion chloride and 0.25 μM recombinant dTDP-D-GIcO reductase protein purified in example 2. The reactions are proceeded at certain temperatures for 2 hours. Then add chloroform of equal volume to extract protein. The aqueous phase is detected by Beckman Coulter P/ACE MDQ capillary electrophoresis.
In the condition of the foregoing reaction (37° C., 3 mM MADPH, 50 mM Tris-HCl buffer (pH 7.4), 0.25 μM enzyme, 30 seconds), the concentration of dTDP-GIcO is 0.1-1 mM. Measure the concentration of dTDP-Qui4N.

[3] abbreviates: 37° C., pH 7.4, 0.25 μM enzyme, 30 seconds, dTDP-GIcO 0.1-1 mM, Michaelis-Menten equation.

The source of these data is patent US20120041185A1, “dTDP-BETA-D-FUCOFURANOSE, ITS PREPARATION METHOD AND USE” (TIANJIN BIOCHIP TECHNOLOGY CORPORATION, priority 2007, published 2012).

By Km is commonly meant the concentration of substrate that gives half-maximal velocity. In general, kcat refers to the number of substrate molecules converted per active site and unit of time at saturation.

B1: Fcf2: dTDP-D-Fucp mutase of E. coli O52 converting dTDP-D-Fucp to dTDP-D-Fucf, 377 amino acids, SEQ ID NO:4 (protein)
chain: MNKVLIIGSGFSGATIARLLAEENIKVKIIDDRKHIGGNCYDERDEKTGINVHVYGPHIFHTDNEDVWNFVNKYGTFQPYTTRLKANAKGQIYSLPVNLHTINQYYKTALSPTEARKLIASKGDQTINDPQSFEEQALKFVGEDLYKTFFYGYPKKQWGMEPKEIPASVLKRLPVRFNYDDNYFFHKFQGIPRDGYTPLFQNLLNHPNIEFELGKKVNRATVEELITSEQYGHVFFSGAIDHFYDYEFGMLQYRTLDFEKFYSEDDDYQGCVVMSYCDEDVPYTRVTEHKYFTPWEEHKGSVLYKEFSRSCDKEDIPYYPVRLVSGNSIWNKYEQKAKEETNITFIGRLATYRYLDMDVCIKEAIECAQLYIKNNKE
modifications: E. coli O52
Turning to B1, the “Transformation rate (%)” value was 1.6% in data set [1] (4° C.); 9.5% in data set [1] (15° C.); 9.6% in data set [1] (25° C.); 9.6% in data set [1] (37° C.); 4.7% in data set [1] (50° C.); 0% in data set [1] (65° C.). For the same molecule, in data set [1] (80° C.), the “Transformation rate (%)” value is 0%. Also, the “optimum temperature for the enzyme activity” value in data set [1] (standard reactions at 4-80° C.) was determined as 37 °C.

B2: Fcf1: dTDP-6-deoxy-D-xylo-hex-4-ulopyranose reductase of E. coli O52, 316 amino acids, SEQ ID NO:3 (protein)
chain: MDARKNGVLITGGAGFIGKALITEMVERQIPLVSFDISDKPDSLPELSEYFNWYKFSYLESSQRIKELHEIVSRHNIKTVIHLATTMFPHESKKNIDKDCLENVYANVCFFKNLYENGCEKIIFASSGGTVYGKSDTPFSEDDALLPEISYGLSKVMTETYLRFIAKELNGKSISLRISNPYGEGQRIDGKQGVIPIFLNKISNDIPIDIIGSIESKRDYIYISDLVQAFMCSLEYEGHEDIFNIGSGESITLKKLIETIEFKLNKKAVIGFQDPIHTNANGIILDIKRAMAELGWRPTVVLDDGIDKLIKSIRCK
modifications: E. coli O52
As for B2, the “Transformation rate (%)” value in data set [2] (4° C.) is reported as 47.0%; in data set [2] (15° C.) it was 100%; in data set [2] (25° C.) it was 100%; in data set [2] (37° C.) it was 100%; in data set [2] (50° C.), 35.5%; in data set [2] (65° C.), 31%. In addition, in data set [2] (80° C.), the “Transformation rate (%)” value is listed as 22%. Moreover, the Km in data set [2] (setting [3]) was found to be 540 µM. Besides, the turnover number (kcat) in data set [2] (setting [3]) was found to be 15.9 s⁻¹. In addition, the “optimum temperature for the enzyme activity” value in data set [2] (standard reactions at 4-80° C.) was 15-37 °C.
